In paper PMC3912051, “The B-Subdomain of the Xenopus laevis XFIN KRAB-AB Domain Is Responsible for Its Weaker Transcriptional Repressor Activity Compared to Human ZNF10/Kox1” (PLoS ONE, 2014):

Biological target: TRIM28 (endogenous human TRIM28 protein) (human (endogenous in HeLa), UniProt Q13263 1-835)
Test: cell-based or functional assay

Sequence of TRIM28 (endogenous human TRIM28 protein) (Q13263 whole entry): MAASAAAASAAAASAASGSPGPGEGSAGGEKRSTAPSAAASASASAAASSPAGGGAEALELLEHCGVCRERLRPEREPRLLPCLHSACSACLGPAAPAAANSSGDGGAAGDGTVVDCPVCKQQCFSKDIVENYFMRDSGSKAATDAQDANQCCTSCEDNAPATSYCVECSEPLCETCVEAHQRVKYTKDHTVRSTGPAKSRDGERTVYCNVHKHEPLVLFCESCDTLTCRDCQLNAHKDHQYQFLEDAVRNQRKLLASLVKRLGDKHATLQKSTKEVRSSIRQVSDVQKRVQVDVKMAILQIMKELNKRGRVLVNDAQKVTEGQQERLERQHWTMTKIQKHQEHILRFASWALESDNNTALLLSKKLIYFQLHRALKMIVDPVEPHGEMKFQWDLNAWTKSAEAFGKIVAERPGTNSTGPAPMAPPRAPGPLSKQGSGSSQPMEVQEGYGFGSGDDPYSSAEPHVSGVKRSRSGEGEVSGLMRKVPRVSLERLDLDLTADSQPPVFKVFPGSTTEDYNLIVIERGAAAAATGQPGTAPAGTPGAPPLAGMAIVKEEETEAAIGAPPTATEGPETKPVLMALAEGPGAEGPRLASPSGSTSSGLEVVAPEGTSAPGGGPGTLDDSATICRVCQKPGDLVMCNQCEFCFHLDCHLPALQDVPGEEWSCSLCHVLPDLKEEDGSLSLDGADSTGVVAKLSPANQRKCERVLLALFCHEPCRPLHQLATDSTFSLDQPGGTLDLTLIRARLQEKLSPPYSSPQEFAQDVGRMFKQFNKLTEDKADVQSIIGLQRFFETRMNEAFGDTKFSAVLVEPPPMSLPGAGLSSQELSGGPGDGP

- fold repression of a Gal4-site luciferase reporter by Gal4-ZNF10-KRAB-AB in EPC fish cells with co-transfected human TRIM28 (negligible without it): ~2 fold
B1: GST-ZNF10-KRAB-AB (KRAB-AB domain of human ZNF10/Kox1 fused to glutathione S-transferase) (domain or fragment)
chain: not shown
